Laboratory results: US20220403044A1 (ACADEMIA SINICA, published 2022)

Assays:
[1] = molecular target: T1, EGFR-Flag (UniProt P00533 25-1210, limits assumed); assay: co-IP with anti-V5, Western blot with anti-Flag, transfected 293T cells (FIG. 1D)
T1 construct: whole, on cells; also called exogenous EGFR; not shown: Flag tag
Protocol: (§1) FIGS. 1A to 1H. EpEX binds to EGFR through its EGF-like domain I. (FIG. 1A) Immunoprecipitation (IP) of affinity cross-linked EpEX-Fc bound to EGFR from HCT116 cells. (FIG. 1B) EpEX-Fc was added to EGFRECD-coated ELISA plates and detected by TMB colorimetric peroxidase assay. (FIG. 1C) 293T cells were transfected with EGFR-Flag and EpCAM-V5. IP was performed with anti-V5 antibody (left panel) or anti-Flag antibody (right panel) followed by Western blotting. (FIG. 1D) 293T cells were transfected with EGFR-Flag and EGF domain-deleted mutant EpCAM-V5. The protein interaction was probed by IP with anti-V5 antibody and Western blotting with anti-Flag antibody. (FIG. 1E) In culture media from 293T cells with EGFRECD-Flag and EpEX-Fc transfection, IP was performed with Dynabeads® Protein G and detected by Western blotting with anti-Flag antibody. (FIG. 1F) 293T cells were transiently transfected with EGFRECD-Flag and EGF domain-deleted mutant EpEX-Fc. […] (FIG. 1G) Purified EGFRECD-6×His and EGF domain-deleted mutant EpEX-Fc were incubated and IP was performed with Dynabeads® Protein G and detected by Western blotting. (FIG. 1H) HCT116 cells were starved and treated with wild-type or EGF domain-deleted mutant EpEX, and EGFR signaling was analyzed by Western blotting. […]

[2] = molecular target: T1, EGFR-Flag; assay: co-IP from HEK293T cells overexpressing EpCAM-V5 and EGFR-Flag (FIG. 1C)
Protocol: as §1

Row | binding result [1] | binding result [2] | Binder
1 | binds | – | EGF-like domain II-deleted EpCAM mutant (EpCAMΔEGFII), V5-tagged (other, UniProt P16422 24-314, looked up, whole, on cells; also called EGF domain-deleted mutant EpCAM-V5; not shown: V5 tag) QEECVCENYKLAVNCFVNNNRQCQCTSVGAQNTVICSKLAAKSERVRTYWIIIELKHKAREKPYDSKSLRTALQKEITTRYQLDPKFITSILYENNVITIDLVQNSSQKTQNDVDIADVAYYFEKDVKGESLFHSKKMDLTVNGEQLDLDPGQTLIYYVDEKAPEFSMQGLKAGVIAVIVVVVIAVVAGIVVLVISRKKRMAKYEKAEIKEMGEMHRELNA
2 | – | binds | EpCAM-V5 (other, UniProt P16422 24-314, looked up, whole, on cells; also called exogenous EpCAM; not shown: V5 tag) QEECVCENYKLAVNCFVNNNRQCQCTSVGAQNTVICSKLAAKCLVMKAEMNGSKLGRRAKPEGALQNNDGLYDPDCDESGLFKAKQCNGTSMCWCVNTAGVRRTDKDTEITCSERVRTYWIIIELKHKAREKPYDSKSLRTALQKEITTRYQLDPKFITSILYENNVITIDLVQNSSQKTQNDVDIADVAYYFEKDVKGESLFHSKKMDLTVNGEQLDLDPGQTLIYYVDEKAPEFSMQGLKAGVIAVIVVVVIAVVAGIVVLVISRKKRMAKYEKAEIKEMGEMHRELNA
